Measured values as given in the DeepSol protein solubility set.

assay: soluble on expression in E. coli; label from the status in PepcDB or PDB records

**Q.** For “MNSIKNVPARVLSRRPGHSLEAEREQFDKTQAISISKAINTQEAPVKEKHARRIILGTHHEKGAFTFWSYAIGLPLPSSSILSWKFCHVLHKVLRDGHPNVLHDCQRYRSNIREIGDLWGHLHDRYGQLVNVYTKLLLTKISFHLKHPQFPAGLEVTDEVLEKAAGTDVNNIFQLTVEMFDYMDCELKLSESVFRQLNTAIAVSQMSSGQCRLAPLIQVIQDCSHLYHYTVKLLFKLHSCLPADTLQGHRDRFHEQFHSLRNFFRRASDMLYFKRLIQIPRLPEGPPNFLRASALAEHIKPVVVIPEEAPEDEEPENLIEISTGPPAGEPVVVADLFDQTFGPPNGSVKDDRDLQIESLKREVEMLRSELEKIKLEAQRYIAQLKSQVNALEGELEEQRKQKQKALVDNEQLRHELAQLRAAQLEGERSQGLREEAERKASATEARYNKLKEKHSELVHVHAELLRKNADTAKQLTVTQQSQEEVARVKEQLAFQVEQVKRESELKLEEKSDQLEKLKRELEAKAGELARAQEALSHTEQSKSELSSRLDTLSAEKDALSGAVRQREADLLAAQSLVRETEAALSREQQRSSQEQGELQGRLAERESQEQGLRQRLLDEQFAVLRGAAAEAAGILQDAVSKLDDPLHLRCTSSPDYLVSRAQEALDAVSTLEEGHAQYLTSLADASALVAALTRFSHLAADTIINGGATSHLAPTDPADRLIDTCRECGARALELMGQLQDQQALRHMQASLVRTPLQGILQLGQELKPKSLDVRQEELGAVVDKEMAATSAAIEDAVRRIEDMMNQARHASSGVKLEVNERILNSCTDLMKAIRLLVTTSTSLQKEIVESGRGAATQQEFYAKNSRWTEGLISASKAVGWGATQLVEAADKVVLHTGKYEELIVCSHEIAASTAQLVAASKVKANKHSPHLSRLQECSRTVNERAANVVASTKSGQEQIEDRDTMDFSGLSLIKLKKQEMETQVRVLELEKTLEAERMRLGELRKQHYVLAGASGSPGEEVAIRPSTAPRSVTTKKPPLAQKPSVAPRQDHQLDKKDGIYPAQLVNY”, which “soluble on expression in E. coli” value is on record?
**A.** soluble

**Q.** Which “soluble on expression in E. coli” value does the source give for “MTSLSQFEPLFLEFMQQEMQVDAAHDIEHVKRVVKTAKQLCDEENADIAIVLPAAYLHDCFTYPKDHPNRKQSSAIAAKKAIAYLESIQYPQHYHDAIAHAIEAHSFSANIRPNTLEAQIVQDADRLDALGAIGVTRCIQVSTHFNAQLYNDNDMFAKERELNDKQFTVDHFQTKLFKIADTMNTESAKLEANKRKAFMQTYLKQLHDEVTALEHHHHHH” here?
**A.** soluble

**Q.** With “MAHHHHHHMQLSRYSPPPSSSSSSLLSTVMQAKDVVTRLGPSERFPGLCGVFLTKPIKKFHPIEVLPTAASAAATTTTAATADSSAERPDASRSPTSAIVSQAPPFVLNLAFAPRHSISLRRFLALRHMFSTSAYLHVATEDGWYLVAPSSAAPLCPDVTGLQAWCCRHHHRYLKHAATAVTAATSSSTPSSRAPRCSTHTGIAKLEAALDNGEELSEEQLQRLAAQEKAFFAHTPENEEADIDDDTDETDDMPAVREPRHPLSQKTAAPTAETLRKRSAGAPASAFGLSPPLIPEAHLFDINDGVAWLLPPSDDLANHEYWKSHRQRMALYESTGDADAAEQREALLATLRADPAIAQHLSSEQELYAAAEALFQALKHKANVTLNVDADTGLLTLVPLRDLHAGEELLLHYGREWWTGRLLFSLLLSVSDAEMPQIRWIEQLFDHAVDRSEPFPLLIVAHEQRKRPRRGCSGGAKVRKGLKNESSGDGDEQQQQSTQCASLTKPHGDSAETSSTTAMTAELPVSQRKLGRAVLYNTVTHKRATDAAVLAFAVRRSCIEPCFLSRLLAGDAAGGVEPVFYLSEPDKEVPMRVLRRVLLASLRGTTASAQRSIPHKDESASVVAGSAVADTAAAVVDQGAPPQTSTNTGGDGDDGDDAVFSV” as the sequence, how does the “soluble on expression in E. coli” value read?
**A.** soluble

**Q.** For “MSLSKIKEIRTKVYQWNGKTVPPQNNFCTNASDLLFEKSDAMGSFRFHEWLICEIETDDGVIGIGNAALAPQIAKKTIDTYLKPLVIGEDPFDYAYIWEKMYRRTHAWGRRGIGMVAISAIDIAIWDIMGKITNKPVFKLLGGRTKEKIPVYASKLYSQPIKALQKEAESYVKQGFKMFKMRFGWGPKDGPDGMKKNIALAEAVREVIGEDTDLMMECYMGWNLDYAKRMIPKLMKFNPRWLEEPVIADDIHGYEELNKMNMIPISGGEHEFNIFGFKQLLDLKAVSYIQYDNNRVGGFTAAQKINAIAEAHQVPVIPHAGQMHNYHLTMSNFNCPISEFFPVHDVEIGNELFYYIFEGDPAPKDGFIDLDDNKPGLGLTITDKYKSDFKIIEEGHHHHHH”, which “soluble on expression in E. coli” value is on record?
**A.** soluble

**Q.** With “MDSAFVDRAWDKWVTTGNVGSSDFEKKMKNPERKNKMLLFGDLIVGICSGPSRLLSTIAKQEGIDIYPVDLKQFIDFMRCGNLPTETFVLGSNQCKNIITSIHENWFAARCLNTSQPAGEGAIVMQTAVYVLVALYDGSIGSASQAMAAADQFASQLSRKNF” as the sequence, how does the “soluble on expression in E. coli” value read?
**A.** soluble

**Q.** For “MGSDKIHHHHHHLVGSGGTGAPPPRSSPMTTLYVTQPGSVVRSEGGSLTVWVETEADDPGPNDSPVRRKRLASVEPHRLESLVLLGFTTITANAMRLCMANKIAVSLLDGGGGLAARVVPPEARSADLRLHQYALHLDPPERLIRARAVVTAKLRNAAAVLRGIRSNQASSAALASAITQTEASAEAAAAAVSAESLLGIEGNGAHQYFAGLRTAFVGGIPFLGRAQRPPPDPANSLLSFGYVLLGNRLTGLLEARGVDPCLGFFHDLRPGRPSLALDLLEELRHPVVDRLALRICNLRKIQPQHFEPDAERPGGVKLTVDGRKIFLEEWEGHLARPLREPGVAAEHRLDVHRLLQRQVDRLVSDLRGGEPYRPFRFGTSRPG”, which “soluble on expression in E. coli” value is on record?
**A.** not soluble

**Q.** Which “soluble on expression in E. coli” value does the source give for “YMVPGLWGAPLKAVSAFAPPMKTQDFNLYTNEVHAKFDDYDLGMEYARQHNKPVMLDFTGYGCVNCRKMELAVWTDPKVSSIINNDYVLITLYVDNKTPLTEPVKIMENGTERTLRTVGDKWSYLQRVKFGANAQPFYVLIDNEGNPLNKSYAYDEDISKYINFLQTGLENYRKEK” here?
**A.** not soluble

**Q.** For “MYGVLVIGAPGAGKSTFCAGLTDIFSQTKRPFLTINLDPANDTMAYAPDVNITEMITVNDVMDRLGLGPNGALKYCIETLGANCNWLLQKIEANHKKYLIIDCPGQLELYKSEGELWKVIRFLEKSGVRLCALHLADSLYCSDPSKFISVALSTLATMVTMEMPQVNCLSKADLFSEDGTYDLEFFSHLPDVNRLLDLLNEVPGLEKYRKLNEAICGVISDFDLVSFVPLAVENKESMMKVIQMVDAANGFSLTEQGDIRELILNSKA”, which “soluble on expression in E. coli” value is on record?
**A.** not soluble

**Q.** For “MGHHHHHHSHMRRAELAGLKTMAWVPAESAVEELMPRLLPVEPCDLTEGFDPSVPPRTPQEYLRRVQIEAAQCPDVVVAQIDPKKLKRKQSVNISLSGCQPAPEGYSPTLQWQQQQVAQFSTVRQNVNKHRSHWKSQQLDSNVTMPKSEDEEGWKKFCLGEKLCADGAVGPATNESPGIDYVQIGFPPLLSIVSRMNQATVTSVLEYLSNWFGERDFTPELGRWLYALLACLEKPLLPEAHSLIRQLARRCSEVRLLVDSKDDERVPALNLLICLVSRYFDQRDLADEPS”, which “soluble on expression in E. coli” value is on record?
**A.** not soluble

**Q.** Which “soluble on expression in E. coli” value does the source give for “AIAGNTTSERVSGERHGAKAARAEGGGHGPGKEHKIMVGSTDDPSVFSLPDSKLPGDKEFVPWQQDLDDSVKPAQQARPTVIRWSEGGKEVFISGSFNNWSTKIPLIKSHNDFVAILDLPEGEHQYKFFVDGQWVHDPSEPVVTSQLGTINNLIHVKKSDFEVFDALKLDSMESSETSCRDLSSSPPGPYGQEMYVFRSEERFKSPPILPPHLLQVILNKDTNISCDPALLPEPNHVMLNHLYALSIKDSVMVLSATHRYKKKYVTTLLYKPI” here?
**A.** soluble

**Q.** For “MGSDKIHHHHHHMNYPQEKIKPYSNDGKKSEQVEQMFDNIAPAYDQLNHTLSLGIDRSWRRKAINWLKPFRPQQIMDVATGTGDFAILACHELQPEQLIGTDISEGMMNVGREKVKKEGLSEKISFAREDCTSLSFADNRFDAITVAFGIRNFEDLDKGLSEMYRVLKTGGHLVILELTTPDRFPMKQMFTIYSKIVIPTLGKLLSKDNSAYSYLPQTIKAFPQGEVMKNVISRVGFSQVQFRRLTFGICTLYTATK”, which “soluble on expression in E. coli” value is on record?
**A.** not soluble

**Q.** For “MKKDIILSGVGGQGILSIATVIGKAALKEGLYMKQAEVHGMSQRGGDVQSNLRISDKPIASDLIPSGKCDLIISLEPMEGLRYLPYLSPEGWLVTNETPFVNIPNYPEEDKVMAEINKLPHKIVLNVDKVAKEVGSARVANIVLLGATIPFLGIDYEKVQDSIREIFLRKGEAIVEMNLKALAAGKEIAEKLMQ”, which “soluble on expression in E. coli” value is on record?
**A.** not soluble

**Q.** For “MPVSDQLIDQLLADYESPQDLLGEQGILRQLTKKLAERALEAEMELHLGYAKHDAAGFNTGNSRNGKSRKSVRSIHGDIELETPRDRNGSFEPKLIKKGEKQLGGFDERIVSLYARGMSTRDIQAHFEETYGVEVSPTFISQITNAVLDEVKAWQLRPLAPVYPIVYLDCLVVRSRDSGSIQNKSVYLALGVNTDGEKELLGLWIAQTEGAKFWLSVMNELKNRGVEDIFIACVDGLKGFPDAIEAVYPKTQVQLCIVHQIRNSLRFVSWKERKAVAADLKTIYGAATLQQAELALEQFAKTWDKQHPSISKSWRENWTRLSVFFDYPPEIRKVIYTTNAIESLNASLRQVTKTRRSFPSDDAVLKLLYLALHQIAKKWTMPLRDWKPAMTQFMIMYSDRVSL”, which “soluble on expression in E. coli” value is on record?
**A.** not soluble

**Q.** With “MLRMDLQTYQKIYSSLHNFGDVFRLSEEYSRPAGMLATILNQKIVKMTRFKHRRVYSREKELFMKWKQGRSILELAEYTYFPPTLMASLILKNCDFSRKSINWLFKHLDCIENRRLRKEVRKALNADYFFSPRAHEMQCRKGEMGEEIVRKWLDDREIAYCTEAEIRAKGDGKTPDFVLSNPIFIEDHMVSWIESKALFGDDFEHKHYAKKQFREYADIFGEGMVVYWYGFLEDLSSEDEGYLIKDYRFFEGYQEQTDELFNYLVYWLEHHHHHH” as the sequence, how does the “soluble on expression in E. coli” value read?
**A.** not soluble

**Q.** For “MVLMIVSGRSGSGKSVALRALEDMGFYCVDNLPVVLLPDLARTLADRQISAAVSIDVRNMPESPEIFEQAMNNLPGAFSPQLLFLDADRNTLIRRYSDTRRLHPLSSKNLSLESAIDKESDLLEPLRSRADLIVDTSEMSVHELAEMLRTRLLGKRERELTMVFESFGFKHGIPIDADYVFDVRFLPNPHWDPKLRPMTGLDKPVAAFLDRHTEVHNFIYQTRSYLELWLPMLETNNRSYLTVAIGCTGGKHRSVYIAEQLADYFRSRGKNVQSRHRTLEKRKT”, which “soluble on expression in E. coli” value is on record?
**A.** not soluble

**Q.** With “KPAKPAAKSIVTLDVKPWDDETNLEEMVANVKAIEMEGLTWGAHQFIPIGFGIKKLQINCVVEDDKVSLDDLQQSIEEDEDHVQSTDIAAMQAL” as the sequence, how does the “soluble on expression in E. coli” value read?
**A.** soluble

**Q.** Which “soluble on expression in E. coli” value does the source give for DCYCRIPACIAGEKKYGTCIYQGKLWAFCC here?
**A.** soluble

**Q.** With “MIIMLSEYLEEFKEYLERFKNIDINFSDVLKMSKKFIIWRLKQIFGDSSTIFTNISSEITIFDKIFQMIDYDIDGEVEKRLPKDESRFMIGVRREKEIEIKKEIITNLLDFLLIILLSHTPYFNAFVRKYAEIKKIKVIKKLPNKISVWEFIKIASRSRINDLHLERLDLENGFVDITKIKEIFAKEIIRVELMKLGENIKKRKLPDDSVVKELLNEISDYLKDKVKYEQISGIKALNYKGNIPLEWHPPCIRGILNDILSGGSPSHYARRSFVVYWFCAKFNPNLRPLDKNGNLVNVSATDIASEEEIERFIDELIEMLFKNVEDFDEKKTRYYIMHNIGYKVGHGRLTHCEYCKNWQDDGGKGLSYYCKPDELCKKKFIIHPLDYLCYNINKHLKKERFKKIKKEDKNGDNKLEHHHHHH” as the sequence, how does the “soluble on expression in E. coli” value read?
**A.** soluble

**Q.** For “MNLGQTLVGIATWPARAGLAAADTGLNMAGAAVDMAKQALGDAGGASGSTSMANMLGIDDTIARANRLARLLDDDMPLGRAIAPNGPMDRMLRPGGVVDLLTQPGGLLDRLTAEGGAMQRALQPGGLADQLLAEDGLIERVLSEDGLADRLLAEGGLIDKITAKDGPLEQLADVADTLARLTPGMEALEPAIATLQDAVIALTMVVNPLSSIAERIPLPGRRPARRSSSRSVRSQRVVDSE”, which “soluble on expression in E. coli” value is on record?
**A.** not soluble
